Measurements: patent US20170283834A1, “Processes for Producing A Fermentation Product Using A Fermenting Organism” (Novozymes A/S, priority 2014, published 2017)

Test: Glucoamylase activity (AGU) of variant compared to parent
Format: biochemical
Settings: 37° C., pH 4.3, maltose 100 mM
Method: The Novo Glucoamylase Unit (AGU) is defined as the amount of enzyme, which hydrolyzes 1 micromole maltose per minute under the standard conditions 37° C., pH 4.3, substrate: maltose 23.2 mM, buffer: acetate 0.1 M, reaction time 5 minutes.
An autoanalyzer system may be used. Mutarotase is added to the glucose dehydrogenase reagent so that any alpha-D-glucose present is turned into beta-D-glucose. Glucose dehydrogenase reacts specifically with beta-D-glucose in the reaction mentioned above, forming NADH which is determined using a photometer at 340 nm as a measure of the original glucose concentration.
The glucoamylase activity measures as AGU as described above was checked for the purified enzymes of the wild type Penicillium oxalicum and the variant glucoamylase.
The Glucoamylase Unit (AGU) was defined as the amount of enzyme, which hydrolyzes 1 micromole maltose per minute under the standard conditions (37° C., pH 4.3, substrate: maltose 100 mM, buffer: acetate 0.1 M, reaction time 6 minutes).

B1: Penicillium oxalicum glucoamylase: wild type Penicillium oxalicum glucoamylase disclosed in SEQ ID NO: 9 (protein, listed as Penicillium oxalicum)
chain: MRLTLLSGVAGVLCAGQLTAARPDPKGGNLTPFIHKEGERSLQGILDNLGGRGKKTPGTAAGLFIASPNTENPNYYYTWTRDSALTAKCLIDLFEDSRAKFPIDRKYLETGIRDYVSSQAILQSVSNPSGTLKDGSGLGEPKFEIDLNPFSGAWGRPQRDGPALRATAMITYANYLISHGQKSDVSQVMWPIIANDLAYVGQYWNNTGFDLWEEVDGSSFFTIAVQHRALVEGSQLAKKLGKSCDACDSQPPQILCFLQSFWNGKYITSNINTQASRSGIDLDSVLGSIHTFDPEAACDDATFQPCSARALANHKVYVDSFRSIYKINAGLAEGSAANVGRYPEDVYQGGNPWYLATLGASELLYDALYQWDRLGKLEVSETSLSFFKDFDATVKIGSYSRNSKTYKKLTQSIKSYADGFIQLVQQYTPSNGSLAEQYDRNTAAPLSANDLTWSFASFLTATQRRDAVVPPSWGAKSANKVPTTCSASPVVGTYKAPTATFSSKTKCVPAKDIVPITFYLIENTYYGENVFMSGNITALGNWDAKKGFPLTANLYTQDQNLWFASVEFIPAGTPFEYKYYKVEPNGDITWEKGPNRVFVAPTGCPVQPHSNDVWQF
Relative specific activity AGU/mg: 100%
